# According to PMC10397247:
# B1: APC1242-AA (peptide)
# chain: DKLAAIKAEAAALEAENAALEAEAAALEG
# B2: P11 (peptide)
# chain: ENQALEQEIAQLEQEIAALEQKNAQLKYG
# How the values were obtained:
# [1] = biological target: T1, APC9806-AA; test: two-hybrid library CCmax; settings: mean of both orientations;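 further: natural log of median RNA to DNA barcode read ratio; higher means stronger binding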
# T1 chain: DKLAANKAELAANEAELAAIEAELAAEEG
# [2] = biological target: T2, APC3323-AA; test: two-hybrid library CCmax; settings: mean of both orientations;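 further: natural log of median RNA to DNA barcode read ratio; higher means stronger binding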
# T2 chain: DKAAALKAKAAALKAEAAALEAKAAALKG
# [3] = biological target: T3, APC1987-AA; test: two-hybrid library CCmax; settings: mean of both orientations;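 further: natural log of median RNA to DNA barcode read ratio; higher means stronger binding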
# T3 chain: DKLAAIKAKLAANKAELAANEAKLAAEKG
# [4] = biological target: T4, APC1916-AA; test: two-hybrid library CCmax; settings: mean of both orientations;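 further: natural log of median RNA to DNA barcode read ratio; higher means stronger binding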
# T4 chain: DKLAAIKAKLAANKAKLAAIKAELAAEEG
# [5] = biological target: T5, APC2811-AA; test: two-hybrid library CCmax; settings: mean of both orientations
# T5 chain: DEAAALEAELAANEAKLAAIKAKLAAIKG
# [6] = biological target: T6, APC3881-AA; test: two-hybrid library CCmax; settings: mean of both orientations
# T6 chain: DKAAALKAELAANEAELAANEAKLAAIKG
# [7] = biological target: T7, APC3354-AA; test: two-hybrid library CCmax; settings: mean of both orientations
# T7 chain: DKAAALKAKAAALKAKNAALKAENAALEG
# [8] = biological target: T8, APC2556-AA; test: two-hybrid library CCmax; settings: mean of both orientations
# T8 chain: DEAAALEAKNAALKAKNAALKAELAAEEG
# [9] = biological target: T9, APC9182-AA; test: two-hybrid library CCmax; settings: mean of both orientations
# T9 chain: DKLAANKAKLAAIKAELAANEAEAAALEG
# [10] = biological target: T10, APC2543-AA; test: two-hybrid library CCmax; settings: mean of both orientations
# T10 chain: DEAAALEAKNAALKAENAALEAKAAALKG
# [11] = biological target: T11, APC4336-AA; test: two-hybrid library CCmax; settings: mean of both orientations
# T11 chain: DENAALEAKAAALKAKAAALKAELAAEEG
# [12] = biological target: T12, APC8401-AA; test: two-hybrid library CCmax; settings: mean of both orientations
# T12 chain: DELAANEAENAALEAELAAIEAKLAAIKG
# [13] = biological target: T13, APC542-AA; test: two-hybrid library CCmax; settings: mean of both orientations
# T13 chain: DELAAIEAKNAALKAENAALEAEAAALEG
# [14] = biological target: T14, APC5009-AA; test: two-hybrid library CCmax; settings: mean of both orientations
# T14 chain: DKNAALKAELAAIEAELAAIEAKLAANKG
# [15] = biological target: T15, APC7524-AA; test: two-hybrid library CCmax; settings: mean of both orientations
# T15 chain: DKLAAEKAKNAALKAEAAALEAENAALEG
# [16] = biological target: T16, APC2724-AA; test: two-hybrid library CCmax; settings: mean of both orientations
# T16 chain: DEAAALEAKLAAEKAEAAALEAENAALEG
# [17] = biological target: T17, APC8516-AA; test: two-hybrid library CCmax; settings: mean of both orientations
# T17 chain: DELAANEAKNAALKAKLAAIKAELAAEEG
# [18] = biological target: T18, APC6088-AA; test: two-hybrid library CCmax; settings: mean of both orientations
# T18 chain: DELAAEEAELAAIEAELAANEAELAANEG
# [19] = biological target: T19, APC2981-AA; test: two-hybrid library CCmax; settings: mean of both orientations
# T19 chain: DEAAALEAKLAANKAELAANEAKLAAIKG
# [20] = biological target: T20, APC9291-AA; test: two-hybrid library CCmax; settings: mean of both orientations
# T20 chain: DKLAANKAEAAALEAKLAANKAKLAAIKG
# [21] = biological target: T21, APC9141-AA; test: two-hybrid library CCmax; settings: mean of both orientations
# T21 chain: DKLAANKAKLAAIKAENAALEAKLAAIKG
# [22] = biological target: T22, APC2257-AA; test: two-hybrid library CCmax; settings: mean of both orientations
# T22 chain: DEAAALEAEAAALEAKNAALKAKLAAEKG
# [23] = biological target: T23, APC2474-AA; test: two-hybrid library CCmax; settings: mean of both orientations
# T23 chain: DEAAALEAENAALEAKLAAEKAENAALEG
# [24] = biological target: T24, APC3265-AA; test: two-hybrid library CCmax; settings: mean of both orientations
# T24 chain: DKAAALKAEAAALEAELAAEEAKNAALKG
# [25] = biological target: T25, APC1242-AA; test: two-hybrid library CCmax
# T25 chain: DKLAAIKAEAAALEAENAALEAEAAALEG
# [26] = biological target: T26, APC5531-AA; test: two-hybrid library CCmax; settings: mean of both orientations
# T26 chain: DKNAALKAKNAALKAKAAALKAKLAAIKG
# [27] = biological target: T27, APC4100-AA; test: two-hybrid library CCmax; settings: mean of both orientations
# T27 chain: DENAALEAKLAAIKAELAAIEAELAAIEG
# [28] = biological target: T28, APC222-AA; test: two-hybrid library CCmax; settings: mean of both orientations
# T28 chain: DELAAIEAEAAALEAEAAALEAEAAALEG
# [29] = biological target: T29, APC2375-AA; test: two-hybrid library CCmax; settings: mean of both orientations
# T29 chain: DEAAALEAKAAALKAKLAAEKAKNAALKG
# [30] = biological target: T30, P7; test: two-hybrid library CC1; settings: mean of both orientations
# T30 chain: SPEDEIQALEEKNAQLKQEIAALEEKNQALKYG
# [31] = biological target: T31, P5mS; test: two-hybrid library CC1; settings: mean of both orientations
# T31 chain: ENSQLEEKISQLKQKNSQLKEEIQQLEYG
# [32] = biological target: T32, P8; test: two-hybrid library CC1; settings: mean of both orientations
# T32 chain: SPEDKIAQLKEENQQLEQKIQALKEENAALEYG
# [33] = biological target: T33, P3; test: two-hybrid library CC1; settings: mean of both orientations
# T33 chain: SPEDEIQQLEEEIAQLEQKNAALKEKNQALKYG
# [34] = biological target: T34, P3mS; test: two-hybrid library CC1; settings: mean of both orientations
# T34 chain: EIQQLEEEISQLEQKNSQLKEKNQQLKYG
# [35] = biological target: T35, P6SC2; test: two-hybrid library CC1; settings: mean of both orientations
# T35 chain: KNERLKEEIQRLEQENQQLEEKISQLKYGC
# [36] = biological target: T36, P5SC2; test: two-hybrid library CC1; settings: mean of both orientations
# T36 chain: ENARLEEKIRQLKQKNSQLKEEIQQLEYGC
# [37] = biological target: T37, P6mS; test: two-hybrid library CC1; settings: mean of both orientations
# T37 chain: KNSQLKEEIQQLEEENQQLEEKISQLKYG
# [38] = biological target: T38, P7mS; test: two-hybrid library CC1; settings: mean of both orientations
# T38 chain: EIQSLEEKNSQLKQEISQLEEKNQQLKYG
# [39] = biological target: T39, P6SC1; test: two-hybrid library CC1; settings: mean of both orientations
# T39 chain: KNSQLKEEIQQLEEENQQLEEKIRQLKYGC
# [40] = biological target: T40, P11; test: two-hybrid library CC1
# T40 chain: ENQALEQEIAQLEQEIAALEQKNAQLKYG
# [41] = biological target: T41, P12; test: two-hybrid library CC1; settings: mean of both orientations
# T41 chain: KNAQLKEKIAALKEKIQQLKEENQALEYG
# [42] = biological target: T42, P9; test: two-hybrid library CC1; settings: mean of both orientations
# T42 chain: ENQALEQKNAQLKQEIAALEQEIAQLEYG
# [43] = biological target: T43, P5SC1; test: two-hybrid library CC1; settings: mean of both orientations
# T43 chain: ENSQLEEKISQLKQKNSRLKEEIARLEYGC
# [44] = biological target: T44, P5; test: two-hybrid library CC1; settings: mean of both orientations
# T44 chain: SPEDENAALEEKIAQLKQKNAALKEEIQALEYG
# [45] = biological target: T45, P6; test: two-hybrid library CC1; settings: mean of both orientations
# T45 chain: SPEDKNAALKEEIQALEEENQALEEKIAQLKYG
# [46] = biological target: T46, P4mS; test: two-hybrid library CC1; settings: mean of both orientations
# T46 chain: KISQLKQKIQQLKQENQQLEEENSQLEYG
# [47] = biological target: T47, P4; test: two-hybrid library CC1; settings: mean of both orientations
# T47 chain: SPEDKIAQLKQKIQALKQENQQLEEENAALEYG
# [48] = biological target: T48, P8mS; test: two-hybrid library CC1; settings: mean of both orientations
# T48 chain: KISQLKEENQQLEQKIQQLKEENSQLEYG
binder,measurement,setting,value
B1,interaction score,[1],-1.43
same,interaction score,[2],-1.85
same,interaction score,[3],-1.67
same,interaction score,[4],-0.197
same,interaction score,[5],-1.73
same,interaction score,[6],-1.81
same,interaction score,[7],-1.74
same,interaction score,[8],-1.73
same,interaction score,[9],-1.34
same,interaction score,[10],-1.38
same,interaction score,[11],-2.21
same,interaction score,[12],-1.53
same,interaction score,[13],-2.16
same,interaction score,[14],-1.74
same,interaction score,[15],-1.82
same,interaction score,[16],-1.96
same,interaction score,[17],-1.75
same,interaction score,[18],-1.12
same,interaction score,[19],-1.87
same,interaction score,[20],-1.76
same,interaction score,[21],-1.7
same,interaction score,[22],-1.45
same,interaction score,[23],-1.53
same,interaction score,[24],-1.56
same,interaction score,[25],-1.39
same,interaction score,[26],-1.83
same,interaction score,[27],-1.76
same,interaction score,[28],-1.71
same,interaction score,[29],-1.54
B2,interaction score,[30],-2.69
same,interaction score,[31],-2.74
same,interaction score,[32],-2.59
same,interaction score,[33],-2.69
same,interaction score,[34],-2.8
same,interaction score,[35],-2.64
same,interaction score,[36],-2.41
same,interaction score,[37],-2.82
same,interaction score,[38],-2.62
same,interaction score,[39],-2.75
same,interaction score,[40],-2.71
same,interaction score,[41],0.313
same,interaction score,[42],-2.25
same,interaction score,[43],-2.59
same,interaction score,[44],-2.7
same,interaction score,[45],-2.83
same,interaction score,[46],-1.07
same,interaction score,[47],-0.75
same,interaction score,[48],-2.69
